Reference: the Human Domainome abundance scans (Beltran et al. 2025)
± gives the uncertainty stated by the source.

B1: Triacylglycerol hydrolase DDHD2, residues 389 to 447; numbered along this chain, O94830 (parent)
chain: TLEEDLKKLQLSEFFDIFEKEKVDKEALALCTDRDLQEIGIPLGPRKKILNYFSTRKNS

Variants of: B1
Assay: abundance fitness (aPCA) (normalised: wild type 0, dead -1); higher = more abundant; growth selection in yeast, the domain comes from the species named
Details: Homo sapiens

Question: Which abundance fitness does the source give for TLEEDLKKLQLSEFFDIFEKEKVDKEALALCTDRDLQEIGIPLGPRKKILNYQSTRKNS [F53Q] here?
Answer: -0.118 ± 0.12

Question: Which abundance fitness does the source give for TLEEDLKKLQLSEFFDIFEKEKVDKEALALCTDRDLQEIGIPLGPRKKILNYKSTRKNS [F53K] here?
Answer: 0.031 ± 0.079

Question: For TLEEDLKKLQLSEFFDIFEKEKVDKEALALCTDRDLQGIGIPLGPRKKILNYFSTRKNS [E38G], which abundance fitness is on record?
Answer: -0.319 ± 0.074

Question: For TLEEDLKKLQLSEFFDIFEKEKVDKEALALCTDRDLQHIGIPLGPRKKILNYFSTRKNS [E38H], which abundance fitness is on record?
Answer: -0.302 ± 0.1

Question: Which abundance fitness does the source give for TLEEDLKKLQLSEFFDIFEKEKVDKEALALCTDRDLQMIGIPLGPRKKILNYFSTRKNS [E38M] here?
Answer: 0.033 ± 0.097

Question: For TLEEDLKKLQLSEFFDIFEKEKVDKEALALCTDRDLQTIGIPLGPRKKILNYFSTRKNS [E38T], which abundance fitness is on record?
Answer: -0.051 ± 0.083

Question: Which abundance fitness does the source give for TLEEDLKKLQLSEFFDIFEKEKVDKEALALCTDRDLQEIGIPLGPRMKILNYFSTRKNS [K47M] here?
Answer: 0.58 ± 0.11

Question: With TLEEDLKKLQLSEFFDIFEKEKVDKEALALCTDRDLQEIGIPLGPRNKILNYFSTRKNS [K47N] as the variant, how does the abundance fitness read?
Answer: 0.254 ± 0.1

Question: With TLEEDLKKLQISEFFDIFEKEKVDKEALALCTDRDLQEIGIPLGPRKKILNYFSTRKNS [L11I] as the variant, how does the abundance fitness read?
Answer: -0.257 ± 0.14

Question: With TLEEDLKKLQASEFFDIFEKEKVDKEALALCTDRDLQEIGIPLGPRKKILNYFSTRKNS [L11A] as the variant, how does the abundance fitness read?
Answer: -0.882 ± 0.098

Question: Which abundance fitness does the source give for TLEEDLKKLQFSEFFDIFEKEKVDKEALALCTDRDLQEIGIPLGPRKKILNYFSTRKNS [L11F] here?
Answer: -1.05 ± 0.17

Question: For TLEEDLKKLQLSEFFDIFEKEKVDKEALALCTDRDLQEIGIPLGPRKKILNYFSTRKNK [S59K], which abundance fitness is on record?
Answer: -0.547 ± 0.37

Question: For TLEEDLKKLQLSEFFDIFEKEKVDKEALALCTDRDLQEIGIPLGPRKKILNYFSTRKNP [S59P], which abundance fitness is on record?
Answer: -0.064 ± 0.11

Question: Which abundance fitness does the source give for TLREDLKKLQLSEFFDIFEKEKVDKEALALCTDRDLQEIGIPLGPRKKILNYFSTRKNS [E3R] here?
Answer: -0.239 ± 0.049

Question: With TLEEDLKKLQLSEFFDIFEKEKVDKEALALCTDRDLQEIGIPLGPRKKILMYFSTRKNS [N51M] as the variant, how does the abundance fitness read?
Answer: 0.084 ± 0.088

Question: With TLEEDLKKLQLSEFFDIFEKEKVDKEALALCTDRDLQEIGIPLGPRKKILKYFSTRKNS [N51K] as the variant, how does the abundance fitness read?
Answer: 0.044 ± 0.097

Question: Which abundance fitness does the source give for TLEEDLKKLQLSEFFDIFEKEKVDKEALALCTDRDLQEIGIPLGPRKKILTYFSTRKNS [N51T] here?
Answer: 0.119 ± 0.079

Question: For TLEEPLKKLQLSEFFDIFEKEKVDKEALALCTDRDLQEIGIPLGPRKKILNYFSTRKNS [D5P], which abundance fitness is on record?
Answer: -0.904 ± 0.092

Question: Which abundance fitness does the source give for TLEENLKKLQLSEFFDIFEKEKVDKEALALCTDRDLQEIGIPLGPRKKILNYFSTRKNS [D5N] here?
Answer: -0.319 ± 0.1

Question: For TLEEDLKKLQLSEFFDITEKEKVDKEALALCTDRDLQEIGIPLGPRKKILNYFSTRKNS [F18T], which abundance fitness is on record?
Answer: -0.759 ± 0.12

Question: For TLEEDLKKLQLSEFFDIFEKEKVDKEALALCTDRNLQEIGIPLGPRKKILNYFSTRKNS [D35N], which abundance fitness is on record?
Answer: -0.06 ± 0.12

Question: Which abundance fitness does the source give for TLEEDLKKLQLSEFFDIFEKEKVDKEALALCTDRILQEIGIPLGPRKKILNYFSTRKNS [D35I] here?
Answer: -1.13 ± 0.19

Question: With TLEEDLKKLQLSEFFDIFEKEKVDKESLALCTDRDLQEIGIPLGPRKKILNYFSTRKNS [A27S] as the variant, how does the abundance fitness read?
Answer: -0.096 ± 0.076

Question: For TLEEDLKKLQLSEFFDIFEKEKVDKECLALCTDRDLQEIGIPLGPRKKILNYFSTRKNS [A27C], which abundance fitness is on record?
Answer: 0.429 ± 0.094

Question: For TLEEDLKKLQLSEFFDIFEKEKVDKELLALCTDRDLQEIGIPLGPRKKILNYFSTRKNS [A27L], which abundance fitness is on record?
Answer: -0.039 ± 0.071

Question: Which abundance fitness does the source give for TLEEDLKKLQLSEFFDIFEKEAVDKEALALCTDRDLQEIGIPLGPRKKILNYFSTRKNS [K22A] here?
Answer: -0.039 ± 0.072

Question: For TLEEDLKKLQLSEFFDIFEKEEVDKEALALCTDRDLQEIGIPLGPRKKILNYFSTRKNS [K22E], which abundance fitness is on record?
Answer: 0.141 ± 0.093

Question: For TLEEDLKKLQLSEFFDIFEKEKVDKEALALCTDRDLQEIGIPLGPRKKILNFFSTRKNS [Y52F], which abundance fitness is on record?
Answer: 0.172 ± 0.16

Question: Which abundance fitness does the source give for TLEEDLKKLQLSEFFDIFEKEKDDKEALALCTDRDLQEIGIPLGPRKKILNYFSTRKNS [V23D] here?
Answer: -0.177 ± 0.094

Question: Which abundance fitness does the source give for TLEEDLTKLQLSEFFDIFEKEKVDKEALALCTDRDLQEIGIPLGPRKKILNYFSTRKNS [K7T] here?
Answer: -0.196 ± 0.099

Question: With TLEEDLLKLQLSEFFDIFEKEKVDKEALALCTDRDLQEIGIPLGPRKKILNYFSTRKNS [K7L] as the variant, how does the abundance fitness read?
Answer: -0.203 ± 0.074

Question: With TLEEDLKKLQLSEFFDIFEKEKVDKEALALCTDRDLQEINIPLGPRKKILNYFSTRKNS [G40N] as the variant, how does the abundance fitness read?
Answer: -0.253 ± 0.14

Question: With TLEEDLKKLQLSEFFDIFEKEKVDKEALALCTDRDLQEIIIPLGPRKKILNYFSTRKNS [G40I] as the variant, how does the abundance fitness read?
Answer: -0.839 ± 0.17

Question: For TLEEDLKKLQLSESFDIFEKEKVDKEALALCTDRDLQEIGIPLGPRKKILNYFSTRKNS [F14S], which abundance fitness is on record?
Answer: -0.511 ± 0.082

Question: For TLEEDLKKLQLSEAFDIFEKEKVDKEALALCTDRDLQEIGIPLGPRKKILNYFSTRKNS [F14A], which abundance fitness is on record?
Answer: -0.098 ± 0.086

Question: With TLEEDLKKLQLSETFDIFEKEKVDKEALALCTDRDLQEIGIPLGPRKKILNYFSTRKNS [F14T] as the variant, how does the abundance fitness read?
Answer: -0.521 ± 0.13

Question: Which abundance fitness does the source give for TLEEDLKKLQLSEFFDIFEKEKVDKEALALCTDRDLQEIGIPLGPRKKILNYFSTRLNS [K57L] here?
Answer: -0.219 ± 0.071

Question: Which abundance fitness does the source give for TLEEDLKKLQLSEFFDIFEKEKVDKEALALCTDRDNQEIGIPLGPRKKILNYFSTRKNS [L36N] here?
Answer: -0.267 ± 0.098

Question: For TLEEDLKKLQLSEFFDIFEKEKVDKEALALCTDRDKQEIGIPLGPRKKILNYFSTRKNS [L36K], which abundance fitness is on record?
Answer: -0.06 ± 0.086

Question: For TLEEDLKKLQLSEFFDIFEKEKVDKEALALCTDRDLQEIGIPRGPRKKILNYFSTRKNS [L43R], which abundance fitness is on record?
Answer: 0.512 ± 0.053

Question: With TLELDLKKLQLSEFFDIFEKEKVDKEALALCTDRDLQEIGIPLGPRKKILNYFSTRKNS [E4L] as the variant, how does the abundance fitness read?
Answer: -0.371 ± 0.059

Question: Which abundance fitness does the source give for TLESDLKKLQLSEFFDIFEKEKVDKEALALCTDRDLQEIGIPLGPRKKILNYFSTRKNS [E4S] here?
Answer: -0.332 ± 0.061

Question: For TLEEDLKKLQLSEFFDIFEKEKVDKEARALCTDRDLQEIGIPLGPRKKILNYFSTRKNS [L28R], which abundance fitness is on record?
Answer: -0.498 ± 0.074

Question: With TLEEDLKKLQLSEFFDIFEKEKVDKEATALCTDRDLQEIGIPLGPRKKILNYFSTRKNS [L28T] as the variant, how does the abundance fitness read?
Answer: -0.342 ± 0.1

Question: Which abundance fitness does the source give for TLEEDLKKLQLSEFFDIFEKEKVDKEALALCLDRDLQEIGIPLGPRKKILNYFSTRKNS [T32L] here?
Answer: -0.907 ± 0.1
